As a reminder, the Kd is the concentration at which binding is half-saturated. Lower therefore signals higher affinity. Usually EC50 stands for the concentration at which the effect is half-maximal.

The target in assay [1] is T1, hMSLN-His-Avi (human, UniProt Q13421 296-598, single biotin on the Avi tag in the biotinylated form).
T1 construct: Monomeric; also called human MSLN-His-Avi; hMSLN-Avi-His
As to the kind of experiment: ratio of SPR KDs.

Assay [2] has as its target T1, hMSLN-His-Avi. As to the kind of experiment: SPR, mAb2 captured on Protein G, hMSLN-His-Avi in solution. On the procedure:
(§1) The association time was 5 min and the dissociation time was 5 min. Running buffer was HBS-EP (GE Healthcare BR100188). Flow cells were regenerated by injecting Glycine-HCl pH2.1 at a flow rate of 30 μl/min for 15 seconds. The data was analysed as described in Example 7.1.
Background: Surface plasmon resonance follows binding to a sensor surface in real time, without labels.

For the next assay, the target named is T2, hCD137-mFc-Avi (human; mouse, UniProt Q07011 24-186, one biotin on each Avi tag in the biotinylated form).
T2 construct: also called human dimeric CD137; human CD137-mFc-Avi
T2 sequence (Q07011 24-186): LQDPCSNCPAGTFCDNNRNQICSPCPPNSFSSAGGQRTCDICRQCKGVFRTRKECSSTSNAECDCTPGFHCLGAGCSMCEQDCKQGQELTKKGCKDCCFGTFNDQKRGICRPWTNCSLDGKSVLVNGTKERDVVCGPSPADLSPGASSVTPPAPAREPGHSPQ
As to the kind of experiment: SPR, mAb2 captured by anti-human Fab, hCD137-mFc-Avi in solution. On the procedure: A Biacore CM5 chip was coated with anti-human Fab using a Human Fab Capture Kit (GE Healthcare 28958325) according to manufacturer's conditions, to a surface density of approximately 9000 RU. […] The association time was 5 min and the dissociation time was 5 min. Running buffer was HBS-EP. Flow cells were regenerated by injecting two repeat injections of 10 mM glycine-HCl at pH 2.1 at a flow rate of 30 μl/min for 30 seconds. Data analysis was performed as described in earlier examples (see e.g. Example 7.1).

In assay [3] the target is human CD137 on primary human CD8+ T cells (human, UniProt Q07011 24-255). Put plainly: cell-based or functional assay.
Chain of human CD137 on primary human CD8+ T cells (Q07011 24-255): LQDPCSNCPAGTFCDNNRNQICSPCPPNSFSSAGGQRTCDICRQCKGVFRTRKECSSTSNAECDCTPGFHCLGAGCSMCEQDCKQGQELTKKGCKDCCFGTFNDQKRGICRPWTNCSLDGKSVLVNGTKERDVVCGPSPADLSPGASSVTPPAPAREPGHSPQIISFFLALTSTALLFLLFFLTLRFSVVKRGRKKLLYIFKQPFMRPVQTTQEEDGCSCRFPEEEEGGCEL
The target in another assay is T3, cMSLN-His-Avi (cynomolgus, single biotin on the Avi tag in the biotinylated form).
T3 construct: Monomeric; also called cyno MSLN-His-Avi; cMSLN-Avi-His
T3 chain: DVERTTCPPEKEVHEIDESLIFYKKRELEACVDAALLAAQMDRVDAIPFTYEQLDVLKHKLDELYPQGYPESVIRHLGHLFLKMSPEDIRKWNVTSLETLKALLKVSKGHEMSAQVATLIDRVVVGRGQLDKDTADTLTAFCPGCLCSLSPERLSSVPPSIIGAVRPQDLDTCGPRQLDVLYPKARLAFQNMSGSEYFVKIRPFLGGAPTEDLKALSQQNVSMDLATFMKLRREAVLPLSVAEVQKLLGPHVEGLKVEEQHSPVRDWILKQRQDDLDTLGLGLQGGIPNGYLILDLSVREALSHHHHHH
As to the kind of experiment: SPR, mAb2 captured on Protein G, cMSLN-His-Avi in solution. On the procedure:
as §1

In assay [4] the target is T1, hMSLN-His-Avi. Put plainly: SPR, hMSLN-His-Avi immobilised ~100 RU, mAb2 injected.
For assay [5], the target named is T4, endogenous cell surface human MSLN (human, UniProt Q13421 296-598).
T4 construct: whole, on cells; The cell line is named under assay; also called cell-surface MSLN on NCI-H226, OVCAR-3 and AsPC-1 cells
T4 sequence (Q13421 other isoform, or with tags, fused parts or gaps limits assumed): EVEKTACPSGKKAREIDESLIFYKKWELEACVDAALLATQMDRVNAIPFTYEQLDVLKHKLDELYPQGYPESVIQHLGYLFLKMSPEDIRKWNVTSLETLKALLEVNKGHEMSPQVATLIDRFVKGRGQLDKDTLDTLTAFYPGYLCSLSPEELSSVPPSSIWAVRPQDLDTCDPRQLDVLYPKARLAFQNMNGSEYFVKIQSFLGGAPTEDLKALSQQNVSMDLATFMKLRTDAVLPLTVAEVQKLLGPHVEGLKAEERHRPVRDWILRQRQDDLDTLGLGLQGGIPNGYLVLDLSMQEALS
Put plainly: flow cytometry, NCI-H226 cells. A general note: In flow cytometry, cells or beads pass a laser one at a time.

Assay [6] deals with T4, endogenous cell surface human MSLN. As to the kind of experiment: flow cytometry, NCI-H226 cells + 20 nM soluble MSLN.
Another assay deals with T5, human E-Cadherin (human, UniProt P12830 155-707).
T5 sequence (looked up): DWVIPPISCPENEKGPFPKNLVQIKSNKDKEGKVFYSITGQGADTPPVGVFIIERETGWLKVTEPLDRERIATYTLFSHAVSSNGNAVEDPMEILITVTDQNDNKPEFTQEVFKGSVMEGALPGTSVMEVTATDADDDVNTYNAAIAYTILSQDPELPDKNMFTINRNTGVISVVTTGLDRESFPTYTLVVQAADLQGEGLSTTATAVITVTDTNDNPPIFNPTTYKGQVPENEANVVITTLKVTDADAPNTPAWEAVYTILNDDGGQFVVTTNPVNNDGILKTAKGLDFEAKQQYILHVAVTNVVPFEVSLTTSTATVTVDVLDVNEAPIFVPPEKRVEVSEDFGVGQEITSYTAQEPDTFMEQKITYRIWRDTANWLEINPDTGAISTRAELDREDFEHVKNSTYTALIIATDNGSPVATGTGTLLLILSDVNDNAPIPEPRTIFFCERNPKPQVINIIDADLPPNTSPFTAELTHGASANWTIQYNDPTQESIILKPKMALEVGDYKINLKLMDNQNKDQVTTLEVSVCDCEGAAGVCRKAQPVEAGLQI
Put plainly: ELISA, antigen coated 1 µg/ml. The method, then:
(§2) Binding of the anti-MSLN mAbs, tested at a concentration range of 0.02 to 1000 nM (3-fold dilutions) was detected using anti-human Fab-HRP (Sigma, A0293).
On the technique in general: In an ELISA, binding on a coated surface is turned into a signal by an enzyme label.

Another assay deals with T6, human CEACAM-5-His-Fc (human, UniProt P06731 35-685).
T6 sequence (looked up): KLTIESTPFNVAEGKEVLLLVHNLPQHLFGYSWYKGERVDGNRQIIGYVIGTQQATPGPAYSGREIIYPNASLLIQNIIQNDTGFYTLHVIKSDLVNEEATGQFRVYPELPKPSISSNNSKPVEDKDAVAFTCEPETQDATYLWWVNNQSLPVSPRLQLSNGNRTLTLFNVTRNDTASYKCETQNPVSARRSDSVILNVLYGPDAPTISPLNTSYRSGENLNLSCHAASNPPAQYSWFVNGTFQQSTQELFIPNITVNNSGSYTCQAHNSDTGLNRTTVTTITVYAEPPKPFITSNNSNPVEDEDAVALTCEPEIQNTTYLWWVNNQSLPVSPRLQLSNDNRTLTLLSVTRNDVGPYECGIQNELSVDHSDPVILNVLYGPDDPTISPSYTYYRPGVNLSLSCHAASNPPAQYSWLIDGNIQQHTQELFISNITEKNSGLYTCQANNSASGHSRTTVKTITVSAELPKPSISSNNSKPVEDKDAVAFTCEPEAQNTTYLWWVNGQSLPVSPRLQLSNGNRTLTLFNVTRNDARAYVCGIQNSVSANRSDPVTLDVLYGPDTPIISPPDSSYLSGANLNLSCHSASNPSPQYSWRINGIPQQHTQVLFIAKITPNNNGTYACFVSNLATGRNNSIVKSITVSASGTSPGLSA
Put plainly: ELISA, antigen coated 1 µg/ml. The method, then:
as §2

Another assay has as its target T7, human EpCAM-hFc (human, UniProt P16422 24-265, limits assumed).
T7 sequence (looked up): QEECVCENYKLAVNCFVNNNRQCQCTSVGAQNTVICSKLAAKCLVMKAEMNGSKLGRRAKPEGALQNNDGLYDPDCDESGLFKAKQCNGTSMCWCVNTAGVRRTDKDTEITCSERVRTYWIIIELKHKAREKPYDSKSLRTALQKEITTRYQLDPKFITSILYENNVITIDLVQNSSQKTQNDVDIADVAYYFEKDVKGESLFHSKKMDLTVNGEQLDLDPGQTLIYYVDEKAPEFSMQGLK
Put plainly: ELISA, antigen coated 1 µg/ml. On the procedure: as §2

For another assay, the target named is human Thrombomodulin (human, UniProt P07204 19-515, limits assumed). Put plainly: ELISA, antigen coated 1 µg/ml. The method, then:
as §2

The target in assay [7] is T1, hMSLN-His-Avi. Put plainly: SPR, hMSLN-His-Avi immobilised at 50 RU.
The target in assay [8] is T1, hMSLN-His-Avi. As to the kind of experiment: SPR, hMSLN-His-Avi immobilised at 100 RU.
Assay [9] addresses T1, hMSLN-His-Avi. Put plainly: ELISA, hMSLN-His-Avi coated 1 µg/ml.

T1 sequence (Q13421 other isoform, or with tags, fused parts or gaps): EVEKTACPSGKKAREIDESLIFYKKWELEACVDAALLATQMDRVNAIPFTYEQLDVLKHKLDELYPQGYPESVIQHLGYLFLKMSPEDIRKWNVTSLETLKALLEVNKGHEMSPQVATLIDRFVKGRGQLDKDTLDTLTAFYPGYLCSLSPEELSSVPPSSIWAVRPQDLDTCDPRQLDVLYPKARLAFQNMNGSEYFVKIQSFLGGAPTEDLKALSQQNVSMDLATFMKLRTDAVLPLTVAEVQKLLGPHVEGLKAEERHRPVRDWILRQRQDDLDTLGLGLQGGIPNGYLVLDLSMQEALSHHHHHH
Chain of human Thrombomodulin (P07204 19-515 limits assumed): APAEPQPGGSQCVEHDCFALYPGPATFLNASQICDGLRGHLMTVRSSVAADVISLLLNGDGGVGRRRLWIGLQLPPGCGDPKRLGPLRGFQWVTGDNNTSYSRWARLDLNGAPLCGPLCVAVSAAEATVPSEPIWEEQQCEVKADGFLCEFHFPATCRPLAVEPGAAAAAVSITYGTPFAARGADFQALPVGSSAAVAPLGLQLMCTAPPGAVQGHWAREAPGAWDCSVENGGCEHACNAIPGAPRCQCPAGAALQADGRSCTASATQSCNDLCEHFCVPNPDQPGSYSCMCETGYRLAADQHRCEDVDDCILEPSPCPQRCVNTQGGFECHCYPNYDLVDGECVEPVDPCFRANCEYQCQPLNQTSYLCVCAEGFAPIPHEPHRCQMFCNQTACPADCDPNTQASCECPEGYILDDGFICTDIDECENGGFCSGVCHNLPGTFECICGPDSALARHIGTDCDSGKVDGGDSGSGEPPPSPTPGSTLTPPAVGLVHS

B1: FS22-172-003-AA/FS28-024-052 (bispecific antibody, human IgG1, kappa, L234A L235A, V domains shown)
VH: EVQLLESGGGLVQPGGSLRLSCAASGFTLSYSSMSWVRQAPGKGLEWVSFITPSTGYTHYADSVKGRFTISRDNSKNTLYLQMNSLRAEDTAVYYCARRALLFDYWGQGTLVTVSS
VL: EIVLTQSPGTLSLSPGERATLSCRASQSVSSSYLAWYQQKPGQAPRLLIYGASSRATGIPDRFSGSGSGTDFTLTISRLEPEDFAVYYCQQASSYPLTFGQGTKVEIKR
notes: IgG1 mAb^2 with LALA
On to B1, for which the “KD ratio in solution/immobilised human MSLN” value in the assay with hMSLN-His-Avi [1] was determined as 85. The molecule further gave a Kd with hMSLN-His-Avi [2] of 33.1 nM. The molecule further gave a dissociation constant Kd in the assay with hCD137-mFc-Avi of 1.51 nM. Further, in assay [3], the “Emax (IL-2 pg/ml), NCI-H226 co-culture, Donor A” value turned out to be 1070 pg/mL; the “Emax (IL-2 pg/ml), NCI-H226 co-culture, Donor B” value stood at 1690 pg/mL; the “IL-2 release EC50, NCI-H226 co-culture, Donor A” value was determined as 0.04 nM; the “IL-2 release EC50, NCI-H226 co-culture, Donor B” value was 0.05 nM. Binding with cMSLN-His-Avi was put at a Kd of 239 nM. Moreover, binding with hMSLN-His-Avi [4] was characterised by a dissociation constant (Kd) of 0.39 nM. In assay [5], the EC50 was 0.884 nM and the “Emax (MFI)” value is 752000 MFI. In assay [6], the EC50 is 3.64 nM and the “Emax (MFI)” value came to 799000 MFI.

B2: FS28-256 (mAb in G1-AA format) (antibody, human IgG1, V domains shown)
VH: EVQLLESGGGLVQPGGSLRLSCAASGFTFTNTYMSWVRQAPGKGLEWVSNISPTYSTTNYADSVKGRFTISRDNSKNTLYLQMNSLRAEDTAVYYCARYNSYQGGLDYWGQGTLVTVSS
VL: EIVLTQSPGTLSLSPGERATLSCRASQSVSSSYLAWYQQKPGQAPRLLIYGASSRATGIPDRFSGSGSGTDFTLTISRLEPEDFAVYYCQQSYYYPITFGQGTKVEIK
Consider B2, for which the binding result in the assay with human E-Cadherin, with human CEACAM-5-His-Fc, with human EpCAM-hFc and with human Thrombomodulin was “no binding (tested: 1000 nM)” in each case. Moreover, the Kd amounted to 26.2 nM with hMSLN-His-Avi [7] and 23.2 nM with hMSLN-His-Avi [8]. This molecule came in with a 50% effective concentration (EC50) with hMSLN-His-Avi [9] of roughly 0.5 nM. Moreover, the maximum binding signal with hMSLN-His-Avi [9] is 3.

B3: FS28-185 (mAb in G1-AA format) (antibody, human IgG1, V domains shown)
VH: EVQLLESGGGLVQPGGSLRLSCAASGFTFTTSAMSWVRQAPGKGLEWVSRINPYEGETNYADSVKGRFTISRDNSKNTLYLQMNSLRAEDTAVYYCARGWSIATYYKSAMDYWGQGTLVTVSS
VL: EIVLTQSPGTLSLSPGERATLSCRASQSVSSSYLAWYQQKPGQAPRLLIYGASSRATGIPDRFSGSGSGTDFTLTISRLEPEDFAVYYCQQSSYSAPVTFGQGTKVEIKR
B3: the binding result in the assay with human E-Cadherin, with human CEACAM-5-His-Fc, with human EpCAM-hFc and in the assay with human Thrombomodulin was “no binding (tested: 1000 nM)” throughout. In addition, the Kd turned out to be 37 nM with hMSLN-His-Avi [7] and 29.6 nM with hMSLN-His-Avi [8]. The EC50 in the assay with hMSLN-His-Avi [9] was roughly 0.5 nM. The same molecule returned a maximum binding signal with hMSLN-His-Avi [9] of 3.

For the origin of these results see patent US12319739 (F STAR DELTA, dated 2025).
